Reference: US7718410B2, “In vivo incorporation of alkynyl amino acids into proteins in eubacteria” (The Scripps Research Institute, priority 2004, dated 2010)

Tested on: E. coli
Test: Chloramphenicol resistance conferred by the synthetase (amber suppression in the CAT gene)
Type: cell-based
Protocol: Following mutagenesis, the pool of synthetases was then passed through positive and negative rounds of selection. The positive selection is based on suppression of an amber stop codon at a permissive site (Asp112) in the chloramphenicol acetyltransferase (CAT) gene. When E. coli cells harboring the MjTyrRS mutant library, the mutated CAT gene and a coexpressed Mj amber suppressor tRNACUA were grown on minimal media in the presence of pPRO-Phe (1 mM) and chloramphenicol (80 μg/mL), the only surviving cells are those cells that contain a mutant synthetase that aminoacylates the tRNACUA with either an endogenous amino acid or pPRO-Phe. The synthetase library genes were then transformed into cells containing a mutated gene encoding the toxic protein barnase, which has three amber mutations at permissive sites (Gln2, Asp44, Gly65). The vector carrying the barnase reporter also contained the suppressor tRNA. Growth of these cells in the absence of pPRO-Phe selected against synthetases capable of accepting endogenous amino acids as a substrate. After three rounds of selection, 96 clones were screened for growth rate dependence on the presence or absence of pPRO-Phe, and eight candidate clones were identified and sequenced. The polynucleotide and amino acid sequences of the eight clones is also provided in SEQ ID NOS: 4 through 19. […]

B1: pPRO-PheRS-1: para-propargyloxyphenylalanine aminoacyl-tRNA synthetase isolate-1, derived from wild-type Methanococcus jannaschii tyrosyl tRNA-synthetase (protein)
chain: MDEFEMIKRNTSEIISEEELREVLKKDEKSAAIGFEPSGKIHLGHYLQIKKMIDLQNAGFDIIILLADLHAYLNQKGELDEIRKIGDYNKKVFEAMGLKAKYVYGSPFQFDKDYTLNVYRLALKTTLKRARRSMELIAREDENPKVAEVIYPIMQVNAIHYAGVDVAVGGMEQRKIHMLARELLPKKVVCIHNPVLTGLDGEGKMSSSKGNFIAVDDSPEEIRAKIKKAYCPAGVVEGNPIMEIAKYFLEYPLTIKRPEKFGGDLTVNSYEELESLFKNKELHPMDLKNAVAEELIKILEPIRKRL
modifications: para-propargyloxyphenylalanine aminoacyl-tRNA synthetase derived from M. jannaschii tyrosyl tRNA-synthetase
notes: para-propargyloxyphenylalanine aminoacyl-tRNA synthetase isolate-1, derived from wild-type Methanococcus jannaschii tyrosyl tRNA-synthetase
With B1 the “chloramphenicol resistance on E. coli, IC50” value (in the absence of pPRO-Phe) was 5 µg/mL and the “chloramphenicol resistance on E. coli, IC50” value (in the presence of pPRO-Phe) was 110 µg/mL.
